Experimental findings from PMC3367090 are described below.

The target of the experiment is IpaD^Δ192-267 (IpaD distal domain deletion mutant) (S. flexneri) (UniProt P18013).

As usually defined, the stoichiometry N is the number of molecules, sites or subunits per partner or assembly.

In turn, “IpaD^Δ192-267 (IpaD distal domain deletion mutant) (from UniProt P18013 15-332) (natural protein)” displayed a stoichiometry N of 5.
